Target: prostate-specific antigen (PSA) (UniProt P07288 25-261)
Assay: electrochemical impedance spectroscopy; Apt-ADA on CD-AuNFs/rGO/SPCE; charge transfer resistance rises with PSA; PBS (detection limit measurement); binding buffer details, pH and temperature not given in the material
Conditions: protein: commercial; hairpin

Chain of prostate-specific antigen (PSA) (P07288 25-261): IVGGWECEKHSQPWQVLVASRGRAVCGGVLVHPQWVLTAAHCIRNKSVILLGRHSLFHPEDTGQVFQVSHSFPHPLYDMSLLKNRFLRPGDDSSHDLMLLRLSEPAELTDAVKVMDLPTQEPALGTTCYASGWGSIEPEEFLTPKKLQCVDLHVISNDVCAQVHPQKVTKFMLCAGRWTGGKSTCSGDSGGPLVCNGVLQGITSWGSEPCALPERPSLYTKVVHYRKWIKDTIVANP

## TTTTTAATTAAAGCTCGCCATCAAATAGCTTT (structured_DNA, 5' amino-C6 coupled to 1-adamantanecarboxylic acid) [anti-PSA aptamer-adamantane conjugate (Apt-ADA)]
  binding result: binds

— publication PMC11478330, “Sandwich-Type Electrochemical Aptasensor with Supramolecular Architecture for Prostate-Specific Antigen”
